B1: TPR t1 (parent)
chain: GACCAAUCUGCCCUCAGAGCUCGAGAACAUCUUCGGAUGCAGAGGAGGCAGGCUUCGGUGGCGCGAUAGCGCCAACGUCCUCAACCUCCAAUGCAUCCCACCACAUGAUGAUGCCUGAAGAGCCUUGGUUUUUUG

Variants of: B1
Assay: polymerase ribozyme fitness, log enrichment relative to wild type (log ratio); higher = more active; in vitro selection for triplet polymerase activity
Outline: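 Genotype fitness is the logarithm of its enrichment divided by wild-type enrichment, using inverse-variance-weighted averages of replicates. That logarithm is base 2. Enrichment was measured by Illumina sequencing of input and output libraries from one triplicate in vitro selection round, with frozen incubation at −7 °C, on PCR-built, transcribed mutant libraries of each subunit of a heterodimeric triplet polymerase ribozyme, retaining genotypes with ≥10 input reads and ≥1 read per output.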

| Variant | polymerase ribozyme fitness (log ratio) |
| --- | --- |
| C3U U106A | -0.258 |
| C31U C34G C53G C70G A90C G120A G122A C124A | -7.98 |
| C11A C70U G117A | -6.1 |
| A18C A26G G71A G93A U112C G122A | -4.45 |
| A2U G45U | -3.96 |
| C28U G48A C53G C89U | -3.42 |
| A18U C114G | -4.17 |
| G44U C72U A121U | 0.777 |
| A2G G39U | -1.18 |
| C8G U125A | 0.0447 |
| C15U C22A U54A C124A | -3.89 |
| C62U C76U | -0.133 |
| G36A G47A G61U | -1.37 |
| C8G U116C | -0.0708 |
| C56G G69U C82U A95U G127U | -3.08 |
| C101A | -1.14 |
| G42A C88A C98G G110C | -6.29 |
| C11A C15A G51U G71A C99A G113C | -8.01 |
| A18C C22U C73A A121U | -5.5 |
| C56G A66U A74C G122A | -6.51 |
| A5G G60A G117A G135C | -0.941 |
| U7G A46U C82U C102A U112A | -0.759 |
| G36C A68G C79G C98U C115U C124U | -6.44 |
| G69A C115G | -3.93 |

| Variant | polymerase ribozyme fitness (log ratio) |
| --- | --- |
| G45U A90C A105G U106A U130G U131A | -2.74 |
| C22G A50U U96C A119G | -3.9 |
| C13U G17U G63U U78C | -3.99 |
| C31U C82A | -5.41 |
| C88A U126A | -3.12 |
| U21A C53G U54G U87A U133A | -3.43 |
| A5C U9C C86U A100U G135U | -1.74 |
| G47C C72G G113A U126A | -5.16 |
| G39A C73A G117A A119G | 1.02 |
| C40G G47U A74U | -4.86 |
| C80A G113U | -4.78 |
| C11G G44A A121U | 1.52 |
| G58A C101G | -1.94 |
| G10U G63U | -1.31 |
| C8G G19A G69U C79U A111G U129C U133A | -1.15 |
| C40U G47U C53U | -3.37 |
| A43U U106A A118U | -1.2 |
| A5U C53U | -0.883 |
| G61C G65A | -4.9 |
| A27U U38C A46U G48A G69U G110U C114U A119G | -6.11 |
| C8G C89A A105C | -4.02 |
| G17U C89U | -1.77 |
| C11U G60U U78C U116C | -2.11 |
| C22G G51A G61U U112G | -5.05 |

| Variant | polymerase ribozyme fitness (log ratio) |
| --- | --- |
| G42A U78A | -2.26 |
| C13G G61A | -1.99 |
| C76A A119G | 0.169 |
| C34A A50U C53U A121C | -4.91 |
| C12U G71A A111C C115A U131G U133A | -0.622 |
| G23A G61U | -4.38 |
| U9C U14C U33G G51A G69U A118G | -5.88 |
| C8U G52A A68G U81A G120U | -4.33 |
| C11G A37C C88G | -1.94 |
| U7G G10A G19U G113A | -1.32 |
| C15A G60U U131A | -1.3 |
| A90G U92G C123A | -1.06 |
| U14A A111G U130A | -3.57 |
| C8U A43G G48U C101A | -3.37 |
| C11A G47U G71A A83G G107C C124U | -7.17 |
| G36U G39C G69A C82A G120U | -5.69 |
| A5U A84G U96C G113U | -4.28 |
| A46C G61U U106A | 0.556 |
| U7G G110U | -0.723 |
| A43G C64U | -1.23 |
| A46U C72G C114U | -4.52 |
| G71A C89U U126C | -1.9 |
| C8G C79A | -0.929 |
| G36C A37G C79A | -2.53 |

| Variant | polymerase ribozyme fitness (log ratio) |
| --- | --- |
| A2G A18G G19C A83C U92A C114A G128C | -3.26 |
| U30C U78A U106C A121U | -2.15 |
| C56U U130G | -1.27 |
| C97G C104U | -3.29 |
| G45A G63C G110A | -1.54 |
| A41C G113C C124U | -3.22 |
| C8G C102U U106C | -0.803 |
| C12U G48C C72G U131G | -1.72 |
| C40A C73A U81C C104U | -0.977 |
| G52U U106G | -3.09 |
| C4G C86A | -2.95 |
| C12G G47C C53U C56U G113A A118C | -5.05 |
| G52U C73U U129C | -1.39 |
| C123A U125G | -0.261 |
| C22U G69C C82A U112C A121C U132A | -3.46 |
| A6C A43U A83U C98U C104U | -2.52 |
| C11G C86G | -1.7 |
| U9G C104U C124U | 1.88 |
| G10U C94U | -0.599 |
| C8A C15G C64U C82G C89A U109A | -6.66 |
| C115A G128A U130C | -0.444 |
| A6G C72U | 0.164 |
| C20U A105U | -3.87 |
| A46G C79A | -1.06 |

| Variant | polymerase ribozyme fitness (log ratio) |
| --- | --- |
| G35C C114U | -5.79 |
| C40G A46U C53U C62A | -3.89 |
| C11A C13G G36U C73A | -4.01 |
| C22A C72A C73A | -5.32 |
| A74U C104A | -1.82 |
| C72U A118G | -0.902 |
| C20A C85G | -3.75 |
| C64A G117U | -6.44 |
| G44U G48U G57C C104A | -3.32 |
| C22G A90G | -3.06 |
| U78C G110U | -1.27 |
| U14A G71C | -3.09 |
| C40U G48C C82A | -1.94 |
| C86U C89U | -0.118 |
| A2C C70A U116C U126C U133A | -5.29 |
| G45U A111U | -4.37 |
| C3G A41C | -3.54 |
| C20A G45A | -2.28 |
| G44A A90G C104U | -0.158 |
| G60U C101U A111C | 0.104 |
| U54C C56U U133G | 0.0417 |
| C82U G113C | -2.19 |
| A24G A119U | -2.54 |
| A29U G69U | -0.63 |

| Variant | polymerase ribozyme fitness (log ratio) |
| --- | --- |
| C11A C12U U38A U78C U96A | -2.53 |
| C12U G52A G117C | -0.882 |
| C12G U21A G77C A84U | -1.73 |
| C12U C79G | -1.07 |
| G61A U132A | 0.242 |
| C8A G48U C53A C62U C82U U106A A108G | -1.01 |
| U38G G44A | -2.72 |
| G60A C115U | -1.41 |
| C101U U109C | -3.93 |
| C40U C62G | -3.29 |
| C115U | -0.935 |
| C11A C72G A111U | -6.18 |
| C11U C15G U112A | -2.98 |
| C72A U132A | -0.00723 |
| G10A G23A | -4.78 |
| C62U A74C C89A C104A U112C | -2.59 |
| A18U C40G C114A | -3.02 |
| G10U G39U G63U G120A | -0.0221 |
| G45A C99U | -4.32 |
| C70U G93C C115U | -3.35 |
| G57A C72U G113A C114U | -2.53 |
| U9A C85U | 0.475 |
| G45A C72U A91G U129A | -3.43 |
| G57A C62G | -3.37 |

| Variant | polymerase ribozyme fitness (log ratio) |
| --- | --- |
| A66U C89U | -1.51 |
| G71U U132C | -0.492 |
| C73U C86A C97U C102U | -4.11 |
| U9A G48C C62A G77A C88U U112A | -3.81 |
| A2U C56A | -2.33 |
| C15U G63U | -3.19 |
| G63C G110U C123U G128C | -5.59 |
| C49G U96A U112A | -0.269 |
| G51U C62U U112G | -5.35 |
| C12A C20G A83G C85U A95G | -5.21 |
| G69C U126A | -3.12 |
| A27U U133A | -3.33 |
| C62U A68G C99U U133G | -6.26 |
| G57U G63C A95C U112A G117A | -4.01 |
| C13A C89A | -3.37 |
| C28A | -3.83 |
| G10A C13U G45U G117A | -0.718 |
| C86U G110A | -2.37 |
| G48C G57A | -0.626 |
| G36C G61U A95C | -2.42 |
| C49A U96G | -0.658 |
| G48C G51U C53U | -4.86 |
| C4G A90G C104U | -0.701 |

Reference: the RNAGym collection of RNA variant scans (doi:10.1073/pnas.2313332121)
